The values that follow come from PMC7108782, “Direct interaction of metastasis-inducing S100P protein with tubulin causes enhanced cell migration without changes in cell adhesion” (Biochemical Journal, 2020).

In assay [1] the test system is COS-7 S10 cells. Nature of the assay: Boyden chamber cell migration, S100P-inducible COS-7. The assay is classed as cell-based, monkey. Particulars: 24 h. An excerpt:
Cell migration rate (%) = M/G × 100.

For assay [2], the system named is nonmuscle myosin (NM) isoforms. Particulars: ref [10]; cited from earlier work. An excerpt: Overexpression of S100P promotes breast cancer metastasis in animals and elevated levels in primary breast cancers are associated with poor patient outcomes.
Assay [3] concerns tubulin polymerisation in COS-7 S10 cells. Nature of the assay: In vivo tubulin polymerisation assay, COS-7 / COS-7 S10. The assay is classed as cell-based, monkey. The protocol:
(§1) HeLa and S100P-inducible HeLa, COS-7 and S100P-inducible COS-7 cells were routinely cultured with or without doxycycline (1 µg/ml) and treated with 33 µM nocodazole for 24 h to synchronise the cells. Then the nocodazole was washed away (First release) and the synchronised cells were cultured in normal medium for 4 h to allow them to complete cell division. The nocodazole was then added again for 4 h to dissociate all the MTs. After this time, nocodazole was again removed by extensive washings (Second release) and tubulin was allowed to polymerise in the interphase of the cell cycle for different times. The cells were treated with buffer (10 mM Tris–HCl, 150 mM KCl, pH 7.4, 2% (v/v) Triton X-100) and the Triton-X100-insoluble tubulins (representing the newly formed MTs) were solubilised in Sample Buffer and quantified by Western blotting. To test the effect of tubulin-derived peptides, 20 µM T-DIC, T-DLV, T-IMN and tag-peptide alone (Supplementary Table S3) in 0.25% (v/v) DMSO as solvent, as well as the solvent control 0.25% (v/v) DMSO were added immediately after the second release in Sample Buffer and quantified at the different time points by Western blotting.

Assay [4] concerns α and β-tubulin subunits and half molecules. As to the kind of experiment: Gel overlay assay. Format: binding, human. The conditions noted are these: 3 µg/ml S100P, 1 μM proteins, 4°C overnight. The protocol:
The coding sequences for full length (human) α-tubulin and for N-terminal and C-terminal halves of α or β-tubulin were generated using PCR with specific primers shown in Supplementary Table S1 and sub-cloned into pET16(b) for expressing and purifying His-tagged full-length α-tubulin and His-tagged tubulin fragments in E. coli, as described previously. β-tubulin was purchased from Abcam.
Equal molar proteins (1 μM) were subjected to SDS PAGE on 10% (w/v) polyacrylamide gels. One gel was stained with Coomassie Blue to check equal loading and the other electroblotted onto PVDF membrane. Three µg/ml S100P in Gel Overlay Buffer were added to the membrane and the contents incubated at 4°C overnight. After extensive washing, the presence of bound S100P was probed with mouse anti-S100P as described for Western blotting.

The test system of assay [5] is COS-7 S10 cells. As to the kind of experiment: Cell adhesion assays, COS-7 S10. Format: cell-based, monkey. The protocol: (§2) For kinetics of attachment either HeLa-A3 or COS-7 S10 cells were induced with 1 µg/ml doxycycline 48 h prior to experiment and 2 × 10^5 uninduced or induced cells in 1 ml were added to 24 well tissue culture dishes and allowed to adhere at 37°C. At the given time (30 min to 2 h) cells were washed 2× with PBS and detached with 250 µl 0.05% (w/v) trypsin in versene for 5 min at 37°C, neutralised in serum-containing media (SCM), counted and the percent of seeded cells recorded. For strength of adhesion, the same cells were seeded in 24 well tissue culture dishes so as to yield 80% confluence in 24 h. In all cases identical dishes were set up for test and control. After 24 h, wells were washed 2× and detached with 250 µl, 0.0125% (w/v) trypsin in versene for 5 min at 37°C. Wells were then carefully washed 2× to remove weak binders. Trypsin in versene (250 µl of 0.05% (w/v)) was then added to both test dish and control dish for 5 min to remove all cells from the well, neutralised with SCM and counted. The proportion of cells remaining after the weak digestion step was determined from the ratio of results from test and control plates. All assays were performed in triplicate.

In assay [6] the test system is COS-7 S10 cells. As to the kind of experiment: Immunofluorescence of MTOC and EB3 bundles. Format: cell-based, monkey. Particulars: COS-7 S10, S100P induced. The protocol:
Immunofluorescent staining was carried out as previously described. COS-7 S10 and MCF-7 cells were induced for 48 h prior to plating at 25,000 cells/well onto either untreated or fibronectin-coated (2.5 µg/cm^2) glass coverslips in a 24-well plate. After a further 48 h, cells were washed once in Cytoskeleton Buffer (CB: 150 mM NaCl, 5 mM MgC1_2, 5 mM EGTA, 5 mM glucose, 10 mM 2-(N-morpholino) ethanesulfonic acid, pH 6.1) prior to fixing with 3.7% (w/v) paraformaldehyde in CB at 37°C for 20 min. Cells were permeabilised with 1% (v/v) Triton X-100 in CB for 2 min and blocked with 5% (v/v) goat serum in CB for 60 min before incubation with rabbit anti-EB3 (Abcam ab157217) and mouse anti-α-tubulin (Sigma T5168) (dilution between 1/400 and 1/500) in 1% (v/v) goat serum in CB for 60 min at room temperature. […] Quantification of the presence of EB3 clusters at the cell periphery or well-defined MTOC was performed by counting the number per cell in about 100 cells selected at random. […] For MTOC quantification, cells and MTOC were graded as shown in Figure 4C′ where organisation is defined as (1) not visible or poorly structured organisation; (2) visible but poorly formed; (3) visible and defined; and (4) well defined and extensive regions. […]

Assay [7] deals with HeLa-A3 cells. As to the kind of experiment: Cell adhesion assays, HeLa-A3. Format: cell-based, human. The conditions noted are these: HeLa A3, S100P induced vs uninduced, weak trypsin digestion, n = 3. The protocol: as §2
For assay [8], the system named is tubulin polymerisation in HeLa-A19 cells. Nature of the assay: In vivo tubulin polymerisation assay, HeLa / HeLa-A19. The assay is classed as cell-based, human. Particulars: HeLa-A19, 4 h after second release, 1 µg/ml doxycycline. The protocol: as §1

Where “and” joins values, the source holds several entries; their conditions need not be identical. Identical values can stand only once.

B1: S100P: recombinant or doxycycline-induced overexpressed S100P protein (protein)
chain: MTELETAMGMIIDVFSRYSGSEGSTQTLTKGELKVLMEKELPGFLQSGKDKDAVDKLLKDLDANGDAQVDFSEFIVFVAAITSACHKYFEKAGLK
Turning to B1, the S100P-enhanced cell migration in assay [1] (COS-7 S10, doxycycline 1 µg/ml) is 2–3 folds. The “fold increase in relative cell migration rate on S100P induction” value in assay [1] (three inducible COS-7 lines S7, S10, S23, 1 µg/ml doxycycline) was 2.5 to 2.9 fold. Also, the “order of interaction with NM isoforms” value in assay [2] is listed as “IIA > IIC > IIB”. The “reduction in tubulin polymerisation on S100P induction” value in assay [3] (COS-7 S10, 4 h after second release, 1 µg/ml doxycycline) was roughly 30%. For the same molecule, the “near steady-state reduction in biochemical assembly of MTs” value in assay [3] (Figure 5E, COS-7 S10) is on record as 33%. In assay [4], the “binding of S100P to tubulin subunits and half molecules” value was “interacted with both α and β-tubulin subunits and with all four half molecules”. Moreover, the “change in rate and strength of adhesion (in words)” value in assay [5] (COS-7 S10, 1 µg/ml doxycycline, P ≥ 0.18) is recorded as “no significant decrease in the rate of adhesion (Supplementary Figure S1) or significant decrease in strength of adhesion”. Moreover, in assay [5] (COS-7 S10, S100P induced vs uninduced, n = 3), the “change in strength of adhesion (in words)” value was “significant change in the strength of adhesion upon induction of S100P (t = 0.6, P = 0.95, n = 3)”. Also, in assay [6], the “reduction in percentage of cells with EB3 bundles at periphery” value stood at 52% and the “reduction in percentage of well-defined MTOCs per cell” value stood at 31%. In assay [7], the “fold decrease in strength of adhesion” value amounted to 1.58 fold. Moreover, in assay [8], the “reduction in tubulin polymerisation on S100P induction” value was 31% and ~30%.
